In article PMC8897262 (Journal of molecular biology, 2021):

Tests used:
[1] = biological target: T1, CD99, endogenously expressed on T-ALL cells (Jurkat, KOPT-K1) (human (endogenous in Jurkat and KOPT-K1)) (UniProt P14209)
T1 sequence (chain, O-linked glycosylation): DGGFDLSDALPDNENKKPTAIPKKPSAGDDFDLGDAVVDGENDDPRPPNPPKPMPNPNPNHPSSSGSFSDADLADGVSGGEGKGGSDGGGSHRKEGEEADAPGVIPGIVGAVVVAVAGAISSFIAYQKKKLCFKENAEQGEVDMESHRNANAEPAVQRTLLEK

[2] = biological target: T2, CD99 peptide containing the 10A1 epitope, Ac-GENDDPRPPNPPKPM-amide (human); test: crystal structure
T2 chain: Ac-GENDDPRPPNPPKPM-NH2

- binding result [2]: binds
B1: 10A1 Fab (Fab, V domains shown)
VH: QVQLQQSGPVLVKPSQTLSLTCAISGDSISSDTTAWSWIRRSPSRGLEWLGWTYYRSKWFNYYAVSVKGRVTINPDTSKNQFSLQLSSVTPEDTAVYYCARGNGNGGMDVWGQGTTVTVSS
VL: SYVLTQPASASVSPGQTARITCSGDALPKQYAYWYQQKPGQAPVLVIFKDSERPSGVPERFSGSSSGTTVTLTISGAQAEDEADYYCQSVDNSGFYQVFGGGTQLTVL
- IC50 (nM Fv) of cytotoxicity, Annexin V staining of KOPT-K1 cells after 18 h [1]: > 2000 nM Fv
